Results published in paper doi:10.1101/481457.

Biological target: human HSF2-YFP (human) (UniProt Q03933)
Test: fluorescent three-hybrid assay

Chain of human HSF2-YFP (human) (Q03933 whole entry): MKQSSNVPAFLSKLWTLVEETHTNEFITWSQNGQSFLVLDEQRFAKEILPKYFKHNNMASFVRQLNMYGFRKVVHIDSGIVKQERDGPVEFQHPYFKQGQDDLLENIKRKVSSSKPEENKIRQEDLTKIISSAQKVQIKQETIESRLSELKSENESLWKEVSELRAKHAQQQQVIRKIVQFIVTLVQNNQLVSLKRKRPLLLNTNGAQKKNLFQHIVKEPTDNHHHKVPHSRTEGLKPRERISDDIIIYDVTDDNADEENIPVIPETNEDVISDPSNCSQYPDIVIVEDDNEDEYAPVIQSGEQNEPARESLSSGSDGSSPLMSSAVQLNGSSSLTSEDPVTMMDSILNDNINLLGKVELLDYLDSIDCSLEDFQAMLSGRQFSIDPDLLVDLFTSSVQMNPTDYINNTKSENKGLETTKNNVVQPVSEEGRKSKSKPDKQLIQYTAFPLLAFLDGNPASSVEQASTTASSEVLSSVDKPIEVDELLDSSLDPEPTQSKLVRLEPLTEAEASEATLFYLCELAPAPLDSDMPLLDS
Chain of CBP-HA, Q92793 1-2442 (natural protein) (Q92793 whole entry): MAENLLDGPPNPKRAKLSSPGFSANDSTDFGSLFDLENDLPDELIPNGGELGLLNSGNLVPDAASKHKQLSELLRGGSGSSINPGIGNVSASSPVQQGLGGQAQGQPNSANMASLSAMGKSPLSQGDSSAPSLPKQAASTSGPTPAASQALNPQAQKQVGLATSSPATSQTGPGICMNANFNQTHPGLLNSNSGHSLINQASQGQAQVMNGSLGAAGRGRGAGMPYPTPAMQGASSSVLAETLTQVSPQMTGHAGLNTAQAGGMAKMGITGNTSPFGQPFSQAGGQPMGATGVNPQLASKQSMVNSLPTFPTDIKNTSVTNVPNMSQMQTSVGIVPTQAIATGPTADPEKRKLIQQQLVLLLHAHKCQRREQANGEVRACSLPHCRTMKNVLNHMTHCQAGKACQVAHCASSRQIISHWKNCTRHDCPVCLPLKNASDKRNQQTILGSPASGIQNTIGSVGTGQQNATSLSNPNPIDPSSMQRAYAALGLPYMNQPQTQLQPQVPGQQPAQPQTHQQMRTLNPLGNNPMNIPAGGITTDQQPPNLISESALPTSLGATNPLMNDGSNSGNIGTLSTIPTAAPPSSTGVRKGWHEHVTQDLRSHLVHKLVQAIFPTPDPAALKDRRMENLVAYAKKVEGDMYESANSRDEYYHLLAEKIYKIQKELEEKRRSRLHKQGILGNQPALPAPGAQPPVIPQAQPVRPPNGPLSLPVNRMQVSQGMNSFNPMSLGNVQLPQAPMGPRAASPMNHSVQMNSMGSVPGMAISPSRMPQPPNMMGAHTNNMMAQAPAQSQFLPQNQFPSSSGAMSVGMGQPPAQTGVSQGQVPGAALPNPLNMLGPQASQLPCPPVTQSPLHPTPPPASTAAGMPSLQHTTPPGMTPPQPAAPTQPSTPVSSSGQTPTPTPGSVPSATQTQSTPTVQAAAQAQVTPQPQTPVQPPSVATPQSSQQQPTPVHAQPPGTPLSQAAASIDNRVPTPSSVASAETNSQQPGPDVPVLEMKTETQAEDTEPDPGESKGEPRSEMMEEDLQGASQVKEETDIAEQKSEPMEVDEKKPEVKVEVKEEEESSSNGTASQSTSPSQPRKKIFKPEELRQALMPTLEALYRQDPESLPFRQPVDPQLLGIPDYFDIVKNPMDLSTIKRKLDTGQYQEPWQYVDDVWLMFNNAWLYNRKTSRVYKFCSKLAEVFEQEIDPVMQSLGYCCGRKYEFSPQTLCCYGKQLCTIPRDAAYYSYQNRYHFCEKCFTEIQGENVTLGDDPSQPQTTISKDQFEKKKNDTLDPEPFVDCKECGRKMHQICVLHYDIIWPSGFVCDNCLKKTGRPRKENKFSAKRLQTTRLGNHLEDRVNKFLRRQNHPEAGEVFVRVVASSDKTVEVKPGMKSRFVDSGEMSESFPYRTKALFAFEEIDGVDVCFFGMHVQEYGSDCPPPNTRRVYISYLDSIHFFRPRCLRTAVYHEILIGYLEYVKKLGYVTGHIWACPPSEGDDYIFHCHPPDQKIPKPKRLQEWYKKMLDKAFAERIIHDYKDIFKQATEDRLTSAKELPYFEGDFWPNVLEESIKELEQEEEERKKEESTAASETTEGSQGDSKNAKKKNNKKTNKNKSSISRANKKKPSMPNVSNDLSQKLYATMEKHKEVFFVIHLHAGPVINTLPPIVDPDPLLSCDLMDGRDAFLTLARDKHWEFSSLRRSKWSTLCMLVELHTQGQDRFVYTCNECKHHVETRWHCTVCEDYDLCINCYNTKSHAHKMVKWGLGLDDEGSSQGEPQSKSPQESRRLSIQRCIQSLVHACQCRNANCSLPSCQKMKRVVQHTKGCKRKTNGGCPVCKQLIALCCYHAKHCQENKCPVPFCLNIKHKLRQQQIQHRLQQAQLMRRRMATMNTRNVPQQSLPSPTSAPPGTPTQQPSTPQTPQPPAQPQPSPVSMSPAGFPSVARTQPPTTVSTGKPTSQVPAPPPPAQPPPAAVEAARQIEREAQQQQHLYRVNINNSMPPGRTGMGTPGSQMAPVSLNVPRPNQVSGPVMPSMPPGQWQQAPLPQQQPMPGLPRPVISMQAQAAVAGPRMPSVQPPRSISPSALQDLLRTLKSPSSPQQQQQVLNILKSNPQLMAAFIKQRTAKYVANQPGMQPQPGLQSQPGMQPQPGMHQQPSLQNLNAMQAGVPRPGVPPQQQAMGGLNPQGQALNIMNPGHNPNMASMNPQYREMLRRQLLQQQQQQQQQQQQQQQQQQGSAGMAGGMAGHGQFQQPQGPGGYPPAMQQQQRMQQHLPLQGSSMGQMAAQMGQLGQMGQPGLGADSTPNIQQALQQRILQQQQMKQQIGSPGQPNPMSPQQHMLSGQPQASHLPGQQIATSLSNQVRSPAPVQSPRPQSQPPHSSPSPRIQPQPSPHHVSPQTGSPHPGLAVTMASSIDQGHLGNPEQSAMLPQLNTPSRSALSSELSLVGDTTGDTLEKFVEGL

| percent of cells showing co-recruitment with HSF2-YFP [%] | percent of cells showing co-recruitment to the HSF2-YFP focus [%] | Substance |
| --- | --- | --- |
| 43.9 |  | endogenous CBP of BHK cells (natural protein) |
|  | 68.4 | CBP-HA, Q92793 1-2442 (natural protein) |
|  | 48.6 | EP300-HA, Q09472 1-2414 |
